Assay results taken from paper doi:10.1101/2020.12.29.424679 (bioRxiv, 2020).
Values belong to the molecule of their own block, whether it stands above or below them.

T1: Human full length HSF2BP WT (human, UniProt O75031 1-334)
T1 sequence: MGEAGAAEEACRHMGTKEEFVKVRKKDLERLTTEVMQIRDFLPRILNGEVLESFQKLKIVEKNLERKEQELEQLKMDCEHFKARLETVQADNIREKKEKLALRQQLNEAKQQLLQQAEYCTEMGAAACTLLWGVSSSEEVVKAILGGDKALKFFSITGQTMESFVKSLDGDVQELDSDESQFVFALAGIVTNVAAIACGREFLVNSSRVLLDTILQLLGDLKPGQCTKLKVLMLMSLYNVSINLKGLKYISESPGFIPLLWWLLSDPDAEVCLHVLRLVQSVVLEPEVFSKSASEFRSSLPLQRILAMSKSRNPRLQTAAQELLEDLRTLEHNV

B1: Human BRCA2 fragment F0 (S2213-Q2342, C2332T) (domain or fragment)
chain: STYSKDSENYFETEAVEIAKAFMEDDELTDSKLPSHATHSLFTCPENEEMVLSNSRIGKRRGEPLILVGEPSIKRNLLNEFDRIIENQEKSLKASKSTPDGTIKDRRLFMHHVSLEPITTVPFRTTKERQ
B2: Armadillo domain of HSF2BP (ARM, aa 122 to aa 334) (domain or fragment)
chain: EMGAAACTLLWGVSSSEEVVKAILGGDKALKFFSITGQTMESFVKSLDGDVQELDSDESQFVFALAGIVTNVAAIACGREFLVNSSRVLLDTILQLLGDLKPGQCTKLKVLMLMSLYNVSINLKGLKYISESPGFIPLLWWLLSDPDAEVCLHVLRLVQSVVLEPEVFSKSASEFRSSLPLQRILAMSKSRNPRLQTAAQELLEDLRTLEHNV
B3: Mouse HSF2BP, natively expressed in ES cells (natural protein)
chain: MAATVGDGSGTEEACRNMESKEEFVKVRKKDLERLTTEVMQIRDFLPRILNGELLESFQKLKMVEKNLERKEQELEQLIMDREHFKARLETAQADSGREKKEKLALRQQLNEAKQQLLQQAEYCTQMGAVTCTLLWGVSSSEEVVKTILGGDKALKFFNITGQTMESFVKSLDGDVKEVDSDENQFVFALAGIVTNVAAIACGREFLVNSSRVLLDTMLQLLGDLKPGQCTKLKVLMLMSLYNVSINSKGLKYITESPGFIPLLWWLLSDPDAEVCLHTLRLIQSVVLEPDVFSKVASELQSSLPLQRILAMSKSRNSHLQSAAQELLEDLRALDCNV
B4: Human BRCA2 fragment FNMR (S2252-Q2342) (domain or fragment)
chain: SLFTCPENEEMVLSNSRIGKRRGEPLILVGEPSIKRNLLNEFDRIIENQEKSLKASKSTPDGTIKDRRLFMHHVSLEPITTVPFRTTKERQ
B5: Human BRCA2 fragment F15X (N2291-Q2342) (peptide)
chain: NEFDRIIENQEKSLKASKSTPDGTIKDRRLFMHHVSLEPITTVPFRTTKERQ

Key:
[1] = molecular target: Mouse HSF2BP-GFP (mouse (knock-in allele in mES cells)) (UniProt Q9D4G2); assay: co-IP
[2] = molecular target: T1, Human full length HSF2BP WT; assay: ITC
[3] = molecular target: B2; assay: ITC
SEC-MALS = molecular target: the molecule itself; assay: SEC-MALS
[4] = molecular target: the molecule itself; assay: SEC-MALS + other: SEC-SAXS
[5] = molecular target: Mouse BRCA2-GFP Δ12 (mouse (knock-in allele in mES cells)) (UniProt P97929); assay: co-IP
Chain of Mouse BRCA2-GFP Δ12 (mouse (knock-in allele in mES cells)) (P97929 whole entry, stated change not applied): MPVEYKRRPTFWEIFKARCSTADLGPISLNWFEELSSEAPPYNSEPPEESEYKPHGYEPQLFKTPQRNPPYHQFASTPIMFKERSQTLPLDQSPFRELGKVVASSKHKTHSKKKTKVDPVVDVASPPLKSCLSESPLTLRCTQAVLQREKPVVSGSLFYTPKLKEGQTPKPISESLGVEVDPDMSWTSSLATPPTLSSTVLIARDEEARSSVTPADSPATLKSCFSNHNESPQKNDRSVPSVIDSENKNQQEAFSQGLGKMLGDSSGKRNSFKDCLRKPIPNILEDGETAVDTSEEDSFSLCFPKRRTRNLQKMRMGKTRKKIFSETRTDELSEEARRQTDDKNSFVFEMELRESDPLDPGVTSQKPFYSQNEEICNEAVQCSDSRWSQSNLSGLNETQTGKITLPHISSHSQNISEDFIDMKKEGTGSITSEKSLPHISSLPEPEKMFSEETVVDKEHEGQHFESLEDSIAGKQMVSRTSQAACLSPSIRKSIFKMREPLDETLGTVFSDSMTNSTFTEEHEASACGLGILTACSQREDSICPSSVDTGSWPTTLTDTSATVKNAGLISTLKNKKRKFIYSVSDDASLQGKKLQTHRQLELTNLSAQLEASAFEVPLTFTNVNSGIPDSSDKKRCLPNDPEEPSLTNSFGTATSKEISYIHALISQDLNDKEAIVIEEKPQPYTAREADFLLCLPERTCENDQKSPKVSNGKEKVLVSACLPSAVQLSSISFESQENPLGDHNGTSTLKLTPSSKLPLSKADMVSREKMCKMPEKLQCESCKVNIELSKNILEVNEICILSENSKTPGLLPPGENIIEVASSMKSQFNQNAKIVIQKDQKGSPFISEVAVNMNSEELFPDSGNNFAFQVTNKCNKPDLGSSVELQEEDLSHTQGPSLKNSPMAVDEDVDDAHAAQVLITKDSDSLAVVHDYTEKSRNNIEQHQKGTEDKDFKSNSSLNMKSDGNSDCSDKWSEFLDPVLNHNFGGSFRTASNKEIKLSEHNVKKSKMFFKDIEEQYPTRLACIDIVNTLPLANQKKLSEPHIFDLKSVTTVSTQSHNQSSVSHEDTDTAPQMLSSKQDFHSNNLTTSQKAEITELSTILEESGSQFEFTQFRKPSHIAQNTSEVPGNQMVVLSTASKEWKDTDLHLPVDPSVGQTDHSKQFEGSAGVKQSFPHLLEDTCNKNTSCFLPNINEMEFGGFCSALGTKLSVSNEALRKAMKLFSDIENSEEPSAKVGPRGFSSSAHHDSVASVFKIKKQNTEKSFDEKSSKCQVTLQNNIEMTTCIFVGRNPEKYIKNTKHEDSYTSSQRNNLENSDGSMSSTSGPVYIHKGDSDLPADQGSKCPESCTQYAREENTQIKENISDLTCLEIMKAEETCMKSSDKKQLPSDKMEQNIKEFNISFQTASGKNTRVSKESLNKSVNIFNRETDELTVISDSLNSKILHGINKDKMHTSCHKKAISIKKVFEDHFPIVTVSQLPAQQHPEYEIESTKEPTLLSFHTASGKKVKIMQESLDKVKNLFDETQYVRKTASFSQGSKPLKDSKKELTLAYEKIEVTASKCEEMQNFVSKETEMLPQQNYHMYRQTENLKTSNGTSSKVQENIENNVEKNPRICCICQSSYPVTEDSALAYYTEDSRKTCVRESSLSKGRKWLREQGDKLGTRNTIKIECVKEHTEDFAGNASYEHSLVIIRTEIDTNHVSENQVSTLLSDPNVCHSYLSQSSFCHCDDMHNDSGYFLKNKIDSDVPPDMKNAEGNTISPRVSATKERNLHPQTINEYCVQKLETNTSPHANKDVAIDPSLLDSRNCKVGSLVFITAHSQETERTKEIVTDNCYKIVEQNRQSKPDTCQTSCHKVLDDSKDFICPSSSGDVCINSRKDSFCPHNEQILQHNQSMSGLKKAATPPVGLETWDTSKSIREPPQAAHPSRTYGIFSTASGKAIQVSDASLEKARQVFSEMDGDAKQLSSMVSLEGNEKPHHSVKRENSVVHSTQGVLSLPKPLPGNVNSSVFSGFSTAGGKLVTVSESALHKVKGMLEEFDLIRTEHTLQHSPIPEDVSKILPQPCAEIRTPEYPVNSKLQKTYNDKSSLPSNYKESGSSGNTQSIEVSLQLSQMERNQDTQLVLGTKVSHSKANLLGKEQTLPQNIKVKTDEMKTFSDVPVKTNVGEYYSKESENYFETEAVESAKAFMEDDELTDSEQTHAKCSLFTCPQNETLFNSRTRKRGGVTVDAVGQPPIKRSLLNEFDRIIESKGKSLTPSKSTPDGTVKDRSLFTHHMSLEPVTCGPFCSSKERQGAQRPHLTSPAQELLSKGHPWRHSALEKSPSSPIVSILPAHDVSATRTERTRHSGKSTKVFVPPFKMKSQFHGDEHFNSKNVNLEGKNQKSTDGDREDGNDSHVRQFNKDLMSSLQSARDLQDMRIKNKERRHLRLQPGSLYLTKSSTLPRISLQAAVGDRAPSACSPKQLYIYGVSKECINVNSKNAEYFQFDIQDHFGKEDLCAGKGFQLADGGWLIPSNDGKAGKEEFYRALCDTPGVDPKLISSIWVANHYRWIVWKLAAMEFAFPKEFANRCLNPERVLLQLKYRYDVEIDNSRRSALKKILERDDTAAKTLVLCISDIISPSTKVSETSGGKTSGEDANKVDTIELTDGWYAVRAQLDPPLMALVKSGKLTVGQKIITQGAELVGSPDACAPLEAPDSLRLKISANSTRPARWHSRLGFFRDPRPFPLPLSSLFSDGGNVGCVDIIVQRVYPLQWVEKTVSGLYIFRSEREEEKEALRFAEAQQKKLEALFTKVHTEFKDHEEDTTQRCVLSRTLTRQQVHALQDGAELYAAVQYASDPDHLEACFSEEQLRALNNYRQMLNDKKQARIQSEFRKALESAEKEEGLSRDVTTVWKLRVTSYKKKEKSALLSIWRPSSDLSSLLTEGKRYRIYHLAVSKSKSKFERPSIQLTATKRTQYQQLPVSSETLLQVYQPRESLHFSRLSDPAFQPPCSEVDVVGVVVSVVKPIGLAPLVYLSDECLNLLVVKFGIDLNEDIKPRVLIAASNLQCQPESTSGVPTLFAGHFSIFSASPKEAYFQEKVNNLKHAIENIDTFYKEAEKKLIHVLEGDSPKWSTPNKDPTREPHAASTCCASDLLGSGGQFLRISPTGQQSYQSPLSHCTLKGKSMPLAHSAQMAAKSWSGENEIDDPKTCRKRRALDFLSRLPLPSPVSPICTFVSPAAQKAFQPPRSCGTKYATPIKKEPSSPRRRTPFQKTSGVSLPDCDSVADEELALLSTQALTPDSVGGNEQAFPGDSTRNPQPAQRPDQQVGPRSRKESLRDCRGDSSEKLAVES

percent loss of co-precipitation against wild-type BRCA2 [1]: 97 to 99%
Molecule: Mouse BRCA2-Δ12 (from UniProt P97929 1-3329) (natural protein)

fold weaker affinity than HSF2BP for F0 [2]: 1000 fold | stoichiometry N [2]: 1
Molecule: BRCA2 peptide F15XΔ12 (D2312-E2342)

Molecule: B1
Kd [2]: 1 nM | fold tighter binding than ARM to F0 [2]: ~25 fold | stoichiometry N [2]: 0.5 | stoichiometry N [3]: 0.5

Molecule: B2
stoichiometry N (SEC-MALS): 2 | stoichiometry N [4]: 4

Molecule: B3
percent loss of co-precipitation against full-length BRCA2-GFP [5]: 95%

Molecule: B4
Kd [3]: ~10 nM | fold higher affinity than ARM for F0 [3]: ~3 fold

Molecule: B5
Kd [3]: ~10 nM | fold higher affinity than ARM for F0 [3]: ~3 fold
